Measured values taken from patent US9803013B2, “Biological materials and uses thereof” (BioInvent International AB, priority 2005, dated 2017).

Experiments:
MDA MB 435 = assay: IgG binding to tumour cell line, flow cytometry MFI; design: species or system human; settings: MDA MB 435, Melanoma
Description: The antigen distribution of human antibody targeted antigens, mainly for B11, on different carcinoma cell lines was investigated. Cells (MCF-7 and MDA MB 435S breast carcinoma, JAR and JEG-3 chorio-carcinoma, A549 lung carcinoma, TCC-SUP urinary bladder carcinoma, MDA MB 435 melanoma, HPAC, PANC-1 and BxPC-3 pancreatic carcinoma, PC-3 and DU145 prostate carcinoma, LS174 T, CaCo2, and Lovo colorectal carcinoma, and THP-1 monocytic leukaemia cells), were washed in PBS, and resuspended at 4×10^6 cells/ml in Complete Medium (200,000 cells/50 […] sample). […] Cells were incubated with either of the antibodies for 1 hour on ice, washed by resuspension in PBS/BSA 0.5%, centrifuged at 1200 rpm for 5 min, and complete aspiration of the supernatants was undertaken. Cells were incubated with PE-conjugated Goat F(ab′)2 anti-Human IgG (Caltag Laboratories, Cat no: H10104), diluted 1/50 in PBS/BSA 0.5%, for 30 min, on ice. Following resuspension of in 300 μl PBS/BSA 0.5%, cells were analysed for IgG binding using a FACScan instrument.

EJM = assay: SCID/xenograft MM model, subcutaneous; type: in vivo, mouse; settings: EJM (ICAM-1+), 2 mg/kg twice weekly from one day after tumor cell injection
Protocol: (§1) Since high expression of the BI-505 epitope in human MM was found, BI-505 was screened for in vivo anti-myeloma activity using SCID/xenograft models comprising four well-characterized MM cell-lines. […] Twice weekly dosing with 2 mg/kg of BI-505 starting one day after tumor cell injection reduced myeloma tumor growth in mice xenografted with ICAM-1-expressing cell lines EJM, RPMI-8226, and NCI-H929 by 98%, 96%, and 99%, respectively (FIGS. 17A and B).
(§2) All studies were conducted in accordance with guidelines of the Lund University Hospital, Sweden or University of Utah, Salt Lake City, USA following approval from the local ethical committee for animal care and use. BI-505 efficacy and potency was examined in subcutaneous and disseminated, prophylactic and therapeutic, experimental MM models comprising myeloma cell lines RPMI-8226, U266, EJM and OPM-2. The in vivo efficacy of BI-505 was compared to clinically approved drugs dexamethasone, melphalan, bortezomib and revlimid used at clinically relevant doses in therapeutic disseminated models comprising RPMI-8226 or primary patient myeloma cells, the latter following injection of patient cells in implanted of human fetal bone in SCID mice. For subcutaneous grafting, 1-5×10^6 tumor cells (RPMI-8226, NCI-H929, EJM, OPM-2, ARH-77, or Daudi) were subcutaneously injected at a volume of 100 μl into the left flank of anesthetized mice as described in the Supplemental Information. […] Treatment with saline, isotype control IgG, bortezomib, lenalidomide, dexamethasone, or BI-505 started on day 5 (RPMI-8226). Treatment with melphalan started on day 10. BI-505 or isotype IgG mAb was administered i.v. at 2 mg/kg/inj twice weekly for 8 weeks; bortezomib at 1 mg/kg/inj once weekly for 8 weeks; lenalidomide orally at 2 mg/kg/inj for 2 cycles consisting of 5 days of treatment and 2 days of wash out; melphalan i.v. at 3 mg/kg/inj once weekly for 8 weeks; and dexamethasone at 6 mg/kg/inj three times weekly for 2 weeks. […] The role of macrophages and NK cells for BI-505 in vivo antitumor activity was assessed using anti-asialo antibody treatment, clodronate liposome treatment or NK-cell deficient mice. […]
(§3) Treatment with antibodies by intraperitoneal injection started either 1 day after cell inoculation (prophylactic model) or when tumors reached approximately 100 mm^3 (established model). […] Macrophage and NK cell depletion was assessed upon termination of tumor bearing mice exposed to effector cell depleting agents (see above), spleens were removed and splenocytes isolated by mincing through a cell strainer (70 μm nylon mesh, BD Falcon 352350), erythrocytes were removed by lysis according to manufacturer (BD Pharm Lyse 555899, BD Biosciences).

RPMI-8226 = assay: SCID/xenograft MM model, subcutaneous; type: in vivo, mouse; settings: RPMI-8226 (ICAM-1+), 2 mg/kg twice weekly from one day after tumor cell injection
Protocol: as §1, §2, §3

NCI-H929 = assay: SCID/xenograft MM model, subcutaneous; type: in vivo, mouse; settings: NCI-H929 (ICAM-1+), 2 mg/kg twice weekly from one day after tumor cell injection
Protocol: as §1, §2, §3

OPM-2 = assay: SCID/xenograft MM model, subcutaneous; type: in vivo, mouse; settings: ICAM-1-negative OPM-2, 2 mg/kg twice weekly
Protocol: as §1, §2, §3

human target tumor cells = assay: ADCC with human effector NK cells; type: cell-based
Protocol: NK cells were isolated from purified PBMCs using positive or negative NK cell-isolation kits (Miltenyi Biotec). Target cells were harvested and incubated in medium with or without the respective antibodies (2 μg/mL) for 60 min on ice before. NK cells were washed, diluted in ADCC medium and dispensed together with the respective antibody-coated target cells at varying effector/target cell ratios. All experiments were performed in triplicate. After incubation, TO-PRO-3 dye and counting beads (Invitrogen) were added and cells were analyzed for membrane permeabilization using flow cytometry.
Buffy coats from human donors (ordered through Blodcentralen, Lund) were used to isolate peripheral blood mononuclear cells (PBMCs), and subsequently natural killer (NK) cells. Briefly, peripheral blood components were separated using Ficoll-Paque PLUS (Amersham Biosciences, Sweden) in Leucosep tubes (Greiner Bio-One). […] The purity of the obtained NK cell fractions was >75% as determined by flow cytometry after staining with α-CD56 antibodies (BD Biosciences). […] After incubation, TO-PRO-3 dye and counting beads (Invitrogen) were added and cells were analyzed for membrane permeabilization using flow cytometry.

B1: B11: fully human IgG1 antibody specific for ICAM-1; VH and VL sequences of FIG. 10 (SEQ ID NOs. 6 and 8) (antibody, listed as Homo sapiens, V domains shown)
VH: EVQLLESGGGLVQPGGSLRLSCAASGFTFSNAWMSWVRQAPGKGLEWVAFIWYDGSNKYYADSVKGRFTISRDNSKNTLYLQMNSLRAEDTAVYYCARYSGWYFDYWGQGTLVTVSS
VL: QSVLTQPPSASGTPGQRVTISCTGSSSNIGAGYDVHWYQQLPGTAPKLLIYDNNNRPSGVPDRFSGSKSGTSASLAISGLRSEDEADYYCQSYDSSLSAWLFGGGTKLTVLG
MDA MB 435
  MFI: 4000
EJM
  reduction of myeloma tumor growth: 98%
RPMI-8226
  reduction of myeloma tumor growth: 96%
NCI-H929
  reduction of myeloma tumor growth: 99%
OPM-2
  tumor growth: did not affect tumor growth
Human target tumor cells
  ADCC: conferred cytotoxicity in an Fc-dependent manner
